Data published in patent US20170190753A1 (LABORATOIRE FRANCAIS DU FRACTIONNEMENT ET DES …, published 2017).

B1: pCEP4-1NT8-13CT20 (other)
chain: EDCNELPPRRNTEILTGSWSDQTYPEGTQAIYKCRPGYRSLGNVIMVCRKGEWVALNPLRKCQKRPCGHPGDTPFGTFTLTGGNVFEYGVKAVYTCNEGYQLLGEINYRECDTDGWTNDIPICEVVKCLPVTAPENGKIVSSAMEPDREYHFGQAVRFVCNSGYKIEGDEEMHCSDDGFWSKEKPKCVEISCKSPDVINGSPISQKIIYKENERFQYKCNMGYEYSERGDAVCTESGWRPLPSCEEKSCDNPYIPNGDYSPLRIKHRTGDEITYQCRNGFYPATRGNTAKCTSTGWIPAPRCTLKPCDYPDIKHGGLYHENMRRPYFPVAVGKYYSYYCDEHFETPSGSYWDHIHCTQDGWSPAVPCLRKCYFPYLENGYNQNHGRKFVQGKSIDVACHPGYALPKAQTTVTCMENGWSPTPRCIRVKTCSKSSIDIENGFISESQYTYALKEKAKYQCKLGYVTADGETSGSITCGKDGWSAQPTCIKSGASGCKSSNLIILEEHLKNKKEFDHNSNIRYRCRGKEGWIHTVCINGRWDPEVNCSMAQIQLCPPPPQIPNSHNMTTTLNYRDGEKVSVLCQENYLIQEGEEITCKDGRWQSIPLCVEKIPCSQPPQIEHGTINSSRSSQESYAHGTKLSYTCEGGFRISEENETTCYMGKWSSPPQCEGLPCKSPPEISHGVVAHMSDSYQYGEEVTYKCFEGFGIDGPAIAKCLGEKWSHPPSCIKTDCLSLPSFENAIPMGEKKDVYKAGEQVTYTCATYYKMDGASNVTCINSRWTGRPTCRDTSCVNPPTVQNAYIVSRQMSKYPSGERVRYQCRSPYEMFGDEEVMCLNGNWTEPPQCKDSTGKCGPPPPIDNGDITSFPLSVYAPASSVEYQCQNLYQLEGNKRITCRNGQWSEPPKCLHPCVISREIMENYNIALRWTAKQKLYSRTGESVEFVCKRGYRLSSRSHTLRTTCWDGKLEYPTCAKRGGSGHHHHHH
B2: pCEP4-1NT8-9CT20 (other)
chain: EDCNELPPRRNTEILTGSWSDQTYPEGTQAIYKCRPGYRSLGNVIMVCRKGEWVALNPLRKCQKRPCGHPGDTPFGTFTLTGGNVFEYGVKAVYTCNEGYQLLGEINYRECDTDGWTNDIPICEVVKCLPVTAPENGKIVSSAMEPDREYHFGQAVRFVCNSGYKIEGDEEMHCSDDGFWSKEKPKCVEISCKSPDVINGSPISQKIIYKENERFQYKCNMGYEYSERGDAVCTESGWRPLPSCEEKSCDNPYIPNGDYSPLRIKHRTGDEITYQCRNGFYPATRGNTAKCTSTGWIPAPRCTLKPCDYPDIKHGGLYHENMRRPYFPVAVGKYYSYYCDEHFETPSGSYWDHIHCTQDGWSPAVPCLRKCYFPYLENGYNQNYGRKFVQGKSIDVACHPGYALPKAQTTVTCMENGWSPTPRCIRVKTCSKSSIDIENGFISESQYTYALKEKAKYQCKLGYVTADGETSGSITCGKDGWSAQPTCIKSGASGCDIPVFMNARTKNDFTWFKLNDTLDYECHDGYESNTGSTTGSIVCGYNGWSDLPICYERECELPKIDVHLVPDRKKDQYKVGEVLKFSCKPGFTIVGPNSVQCYHFGLSPDLPICKEQVQSCGPPPELLNGNVKEKTKEEYGHSEVVEYYCNPRFLMKGPNKIQCVDGEWTTLPVCIVEESTCGDIPELEHGWAQLSSPPYYYGDSVEFNCSESFTMIGHRSITCIHGVWTQLPQCVAIDKLKKCKSSNLIILEEHLKNKKEFDHNSNIRYRCRGKEGWIHTVCINGRWDPEVNCSMAQIQLCPPPPQIPNSHNMTTTLNYRDGEKVSVLCQENYLIQEGEEITCKDGRWQSIPLCVEKIPCSQPPQIEHGTINSSRSSQESYAHGTKLSYTCEGGFRISEENETTCYMGKWSSPPQCEGLPCKSPPEISHGVVAHMSDSYQYGEEVTYKCFEGFGIDGPAIAKCLGEKWSHPPSCIKTDCLSLPSFENAIPMGEKKDVYKAGEQVTYTCATYYKMDGASNVTCINSRWTGRPTCRDTSCVNPPTVQNAYIVSRQMSKYPSGERVRYQCRSPYEMFGDEEVMCLNGNWTEPPQCKDSTGKCGPPPPIDNGDITSFPLSVYAPASSVEYQCQNLYQLEGNKRITCRNGQWSEPPKCLHPCVISREIMENYNIALRWTAKQKLYSRTGESVEFVCKRGYRLSSRSHTLRTTCWDGKLEYPTCAKRGGSGHHHHHH

Molecular target: C3 convertase complex (UniProt P01024 23-1663; P00751 260-764)
Experiment: cell-based or functional assay
Wherever C3 convertase activity % of the control is given: test concentration or dose not given here.

Chain of C3 convertase complex (P01024 23-1663, chain 1 of 2): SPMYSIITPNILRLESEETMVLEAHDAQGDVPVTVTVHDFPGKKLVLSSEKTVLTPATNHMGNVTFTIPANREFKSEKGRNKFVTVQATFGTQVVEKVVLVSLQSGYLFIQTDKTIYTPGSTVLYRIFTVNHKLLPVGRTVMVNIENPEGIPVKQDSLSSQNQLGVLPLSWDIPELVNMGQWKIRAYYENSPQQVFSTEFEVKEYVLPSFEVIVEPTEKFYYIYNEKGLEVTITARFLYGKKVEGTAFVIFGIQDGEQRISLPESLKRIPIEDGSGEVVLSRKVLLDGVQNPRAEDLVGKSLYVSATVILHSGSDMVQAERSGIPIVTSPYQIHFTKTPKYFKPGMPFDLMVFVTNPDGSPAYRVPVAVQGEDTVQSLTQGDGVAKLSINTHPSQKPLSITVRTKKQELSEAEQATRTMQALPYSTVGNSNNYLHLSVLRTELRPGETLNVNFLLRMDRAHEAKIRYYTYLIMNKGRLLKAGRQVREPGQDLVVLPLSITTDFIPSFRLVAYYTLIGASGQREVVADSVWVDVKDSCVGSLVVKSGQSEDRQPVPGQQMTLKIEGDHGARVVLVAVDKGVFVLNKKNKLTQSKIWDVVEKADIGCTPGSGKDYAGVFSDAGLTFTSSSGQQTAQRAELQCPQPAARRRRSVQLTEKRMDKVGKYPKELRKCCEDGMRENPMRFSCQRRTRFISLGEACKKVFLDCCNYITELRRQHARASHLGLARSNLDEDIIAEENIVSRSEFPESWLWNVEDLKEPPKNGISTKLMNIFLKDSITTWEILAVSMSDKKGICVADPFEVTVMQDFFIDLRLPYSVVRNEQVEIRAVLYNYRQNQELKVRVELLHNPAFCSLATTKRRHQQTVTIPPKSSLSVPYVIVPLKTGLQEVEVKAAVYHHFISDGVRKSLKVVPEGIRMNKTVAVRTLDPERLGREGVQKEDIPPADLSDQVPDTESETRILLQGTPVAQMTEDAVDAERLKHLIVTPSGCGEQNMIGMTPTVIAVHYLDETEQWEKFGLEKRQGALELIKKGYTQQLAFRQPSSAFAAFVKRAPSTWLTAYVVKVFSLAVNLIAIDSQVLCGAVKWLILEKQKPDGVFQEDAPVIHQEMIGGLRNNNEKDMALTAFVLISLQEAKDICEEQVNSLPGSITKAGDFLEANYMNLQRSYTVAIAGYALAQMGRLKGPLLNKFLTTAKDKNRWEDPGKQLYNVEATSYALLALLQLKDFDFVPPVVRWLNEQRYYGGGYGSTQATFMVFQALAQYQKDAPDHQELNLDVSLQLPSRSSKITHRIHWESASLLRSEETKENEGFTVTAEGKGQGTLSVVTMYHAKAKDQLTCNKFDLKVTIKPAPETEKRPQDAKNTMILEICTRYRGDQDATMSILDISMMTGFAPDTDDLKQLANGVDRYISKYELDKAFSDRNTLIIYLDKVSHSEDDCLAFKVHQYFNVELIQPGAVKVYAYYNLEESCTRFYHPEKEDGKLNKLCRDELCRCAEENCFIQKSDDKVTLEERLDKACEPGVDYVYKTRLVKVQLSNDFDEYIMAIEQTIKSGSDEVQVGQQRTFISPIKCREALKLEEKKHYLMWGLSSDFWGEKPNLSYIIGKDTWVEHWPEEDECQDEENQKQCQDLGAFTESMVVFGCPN
Chain of C3 convertase complex (P00751 260-764, chain 2 of 2): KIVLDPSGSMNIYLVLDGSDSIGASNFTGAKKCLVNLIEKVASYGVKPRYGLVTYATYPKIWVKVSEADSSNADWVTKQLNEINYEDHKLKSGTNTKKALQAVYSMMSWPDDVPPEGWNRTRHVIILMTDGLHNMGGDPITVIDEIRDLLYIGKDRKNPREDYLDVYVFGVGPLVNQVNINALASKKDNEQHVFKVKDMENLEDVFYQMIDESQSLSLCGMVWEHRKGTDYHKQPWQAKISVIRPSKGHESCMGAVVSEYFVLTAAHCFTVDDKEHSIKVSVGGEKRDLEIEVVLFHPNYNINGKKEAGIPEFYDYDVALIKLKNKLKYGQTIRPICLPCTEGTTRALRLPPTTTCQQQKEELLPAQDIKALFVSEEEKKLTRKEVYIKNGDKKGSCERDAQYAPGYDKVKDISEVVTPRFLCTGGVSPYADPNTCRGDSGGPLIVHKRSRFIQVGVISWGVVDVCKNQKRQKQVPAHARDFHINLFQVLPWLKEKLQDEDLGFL

C3 convertase activity % of the control	C3 convertase activity IC50	Binder
30 % of the control	0.402 µg/mL	B1
27 % of the control	0.489 µg/mL	B2
